Target: T1, Ci-FoxA-a (Ci-Fkh/HNF-3beta) (Ciona intestinalis, UniProt Q4H3J7 131-225)
T1 sequence: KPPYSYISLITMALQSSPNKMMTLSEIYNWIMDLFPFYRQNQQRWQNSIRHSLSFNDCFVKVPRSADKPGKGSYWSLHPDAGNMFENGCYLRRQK
Assay: competition

B1: 27-52 Fox (distal) (dsDNA)
DNA 1: CTACACCCATATTTGAAGACCAAA
DNA 2: TTTGGTCTTCAAATATGGGTGTAG
- binding result: binds

Reference: article PMC2666983
